From article PMC6093232, “PROMIS, global analysis of PROtein–metabolite interactions using size separation in Arabidopsis thaliana” (The Journal of Biological Chemistry, 2018)

Target: His6-GAPC1/2 (cytosolic glyceraldehyde-3-phosphate dehydrogenase, GAPC1 or GAPC2) (A. thaliana, UniProt P25858 1-338)
Assay: nano-DSF (thermal shift, Prometheus NT.48); plant GAPCs 0.2–0.25 mg/ml with 25 μM (GAPC1/2, GAPCP1) or 50 μM (GAPCP2) dipeptide in 1× PBS; thermal ramp 2 °C/min, 20–90 °C; Tm from F350/F330
Conditions: both partners purified

Chain of His6-GAPC1/2 (cytosolic glyceraldehyde-3-phosphate dehydrogenase, GAPC1 or GAPC2) (P25858 whole entry): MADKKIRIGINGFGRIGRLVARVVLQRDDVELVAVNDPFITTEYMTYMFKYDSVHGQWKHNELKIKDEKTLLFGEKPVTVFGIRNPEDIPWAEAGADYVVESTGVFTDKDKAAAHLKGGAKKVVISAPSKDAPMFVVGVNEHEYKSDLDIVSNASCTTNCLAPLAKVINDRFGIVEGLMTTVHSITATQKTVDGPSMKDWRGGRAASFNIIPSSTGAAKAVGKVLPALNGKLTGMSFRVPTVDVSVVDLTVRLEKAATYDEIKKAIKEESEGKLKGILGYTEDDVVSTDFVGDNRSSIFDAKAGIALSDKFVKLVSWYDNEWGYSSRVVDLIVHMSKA

B1: dipeptide Tyr–Asp (peptide)
peptide: YD
notes: free dipeptide Tyr–Asp, printed in three-letter code; source: synthetic peptide; bought: Eurogentec
decrease of Tm with 25 μM Tyr–Asp: ~1 °C
